According to article doi:10.1101/2021.09.06.459192 (bioRxiv, 2021):

Biological target: Rrp5 full length, recombinant (Rrp5_FL) (S. cerevisiae, UniProt Q05022 1-1729)
Experiment: pull-down

Chain of Rrp5 full length, recombinant (Rrp5_FL) (Q05022 whole entry): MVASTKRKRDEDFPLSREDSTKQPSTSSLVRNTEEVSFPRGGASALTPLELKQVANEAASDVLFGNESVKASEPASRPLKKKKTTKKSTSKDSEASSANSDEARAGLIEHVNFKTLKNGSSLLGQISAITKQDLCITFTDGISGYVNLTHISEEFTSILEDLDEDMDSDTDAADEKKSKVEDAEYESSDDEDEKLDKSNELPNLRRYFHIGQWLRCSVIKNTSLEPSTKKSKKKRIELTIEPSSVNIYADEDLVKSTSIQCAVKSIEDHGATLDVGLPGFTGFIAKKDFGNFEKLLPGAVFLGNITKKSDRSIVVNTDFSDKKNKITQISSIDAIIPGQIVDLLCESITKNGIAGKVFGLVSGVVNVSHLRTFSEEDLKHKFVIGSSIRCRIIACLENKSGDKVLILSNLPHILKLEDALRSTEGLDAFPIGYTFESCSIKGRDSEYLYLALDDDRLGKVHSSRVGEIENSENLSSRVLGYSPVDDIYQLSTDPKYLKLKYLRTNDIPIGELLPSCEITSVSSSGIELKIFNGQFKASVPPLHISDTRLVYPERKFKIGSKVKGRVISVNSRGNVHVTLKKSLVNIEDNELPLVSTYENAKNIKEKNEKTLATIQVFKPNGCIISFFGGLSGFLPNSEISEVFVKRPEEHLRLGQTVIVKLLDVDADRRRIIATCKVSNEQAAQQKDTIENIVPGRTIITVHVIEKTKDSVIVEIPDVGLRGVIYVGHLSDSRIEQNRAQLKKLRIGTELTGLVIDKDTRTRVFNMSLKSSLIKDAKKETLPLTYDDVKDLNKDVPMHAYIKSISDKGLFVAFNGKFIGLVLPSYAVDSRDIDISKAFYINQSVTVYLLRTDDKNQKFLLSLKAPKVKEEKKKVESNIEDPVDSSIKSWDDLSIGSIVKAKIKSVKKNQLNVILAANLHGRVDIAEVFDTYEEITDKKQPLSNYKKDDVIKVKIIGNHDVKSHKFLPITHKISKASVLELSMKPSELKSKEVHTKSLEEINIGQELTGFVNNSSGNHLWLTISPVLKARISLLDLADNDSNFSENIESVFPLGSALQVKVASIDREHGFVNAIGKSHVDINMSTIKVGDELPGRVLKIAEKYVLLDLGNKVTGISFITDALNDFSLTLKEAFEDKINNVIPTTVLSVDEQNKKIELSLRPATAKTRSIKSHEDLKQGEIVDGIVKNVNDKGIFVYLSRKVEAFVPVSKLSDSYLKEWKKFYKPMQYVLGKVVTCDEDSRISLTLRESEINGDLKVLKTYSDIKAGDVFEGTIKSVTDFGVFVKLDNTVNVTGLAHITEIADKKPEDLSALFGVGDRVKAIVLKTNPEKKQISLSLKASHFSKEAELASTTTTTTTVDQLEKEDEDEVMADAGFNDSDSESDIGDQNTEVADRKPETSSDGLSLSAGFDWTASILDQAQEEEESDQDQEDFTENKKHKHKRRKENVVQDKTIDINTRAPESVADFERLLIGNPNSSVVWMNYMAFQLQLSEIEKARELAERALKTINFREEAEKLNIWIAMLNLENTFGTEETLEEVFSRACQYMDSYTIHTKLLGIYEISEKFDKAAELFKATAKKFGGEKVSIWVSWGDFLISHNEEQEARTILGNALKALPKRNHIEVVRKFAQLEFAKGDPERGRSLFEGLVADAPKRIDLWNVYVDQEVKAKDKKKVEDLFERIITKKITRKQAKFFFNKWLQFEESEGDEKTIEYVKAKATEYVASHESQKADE

| Binder | binding result |
| --- | --- |
| MBP-Rrp36, recombinant (natural protein, S. cerevisiae, UniProt Q12481 1-300, looked up) MSYYFKNLKPDLNSDVEEDDGNLLESIMANKSKREIDEQESSDDELKTLSFGSLKKAETVIDEEDFKDTKPVHKKPITTTYREESFDEDEDSEDQSDEDAGFFEEDSEDETHHGQKVPKKKSKHAPVEQSSKKRVPRVRNIPGLEIPRNKRSNLYQDIRFDKSTGKALDSSIIRKRYQFLDEYREKEIDELQKLLQERKFLSKIDQGEREEMEQRLKSMKSRLQSMKNKDLEREILKEYENDMNKNNNTRYHLKKSEKRKVVQKWKFDHMKAKQREKVMERKRKKRLGKEFKQFEFHNRR | binds |
| MBP-Krr1, recombinant (natural protein, S. cerevisiae, UniProt P25586 1-316, looked up) MVSTHNRDKPWDTDDIDKWKIEEFKEEDNASGQPFAEESSFMTLFPKYRESYLKTIWNDVTRALDKHNIACVLDLVEGSMTVKTTRKTYDPAIILKARDLIKLLARSVPFPQAVKILQDDMACDVIKIGNFVTNKERFVKRRQRLVGPNGNTLKALELLTKCYILVQGNTVSAMGPFKGLKEVRRVVEDCMKNIHPIYHIKELMIKRELAKRPELANEDWSRFLPMFKKRNVARKKPKKIRNVEKKVYTPFPPAQLPRKVDLEIESGEYFLSKREKQMKKLNEQKEKQMEREIERQEERAKDFIAPEEEAYKPNQN | binds |
